Measurements published in the supplement of paper PMC7125110.
± gives the standard error. Fewer inactive variants are shown than the library holds.

B1: glmS ribozyme (parent)
chain: AUAAAAGCGCCAGAACUACAGAAAUGUAGUUGACGAGGAGGAGGUUUAUCGAAUUUUCGGCGGAUGCCUCCAAA

Variants of: B1
Assay: self-cleavage kobs at 2500 uM GlcN6P; higher = faster cleavage; RNA array
Conditions: with glucosamine-6-phosphate
Method in brief: (§1)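 Glucosamine-6-phosphate, from 40 μM to 10 mM in HEPES/KCl/Mg(OAc)2 buffer, was flowed over sequenced MiSeq chips carrying barcoded ribozyme variants transcribed in situ by E. coli RNA polymerase. A hybridised Cy3 probe tracked the variants at 37 °C as tiles were imaged over ~14 h. kobs, kcat and KM were obtained by fitting normalised per-tile medians to exponential decays and then applying weighted Michaelis–Menten fits across concentrations.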

Row | Variant | self-cleavage kobs at 2500 uM GlcN6P [s⁻¹]
1 | C8A G40U A53G | < 1e-05
2 | C11G G35C U45G C67A | < 1e-05
3 | C10G G32C A53C G63U A64G | < 1e-05
4 | C8G A15C A36G | < 1e-05
5 | G9U A12C A33G A53U | < 1e-05
6 | C10G U46A U56G | < 1e-05
7 | C8U G60U C61G C70G | < 1e-05
8 | C11U G40C G44A G51A C61G C71A | < 1e-05
9 | C10A C16G U31C G37C C58A G59U | < 1e-05
10 | A12G G63A C67A | < 1e-05
11 | G9C G66C | < 1e-05
12 | C8U A39U A64U | < 1e-05
13 | C8G C10G A39C | < 1e-05
14 | A12C A42U C67U | 7.04e-05 ± 1.6e-05
15 | G7U G9A G29A A39G | < 1e-05
16 | C8U A15C C71G | < 1e-05
17 | C11U C16G G43A | < 1e-05
18 | A12G G59C C67U | 4.19e-05 ± 1.9e-05
19 | G9U U55C U56G C67U | < 1e-05
20 | C8G A14G U55G C58U U65G | < 1e-05
21 | C10G G37A U56G G62U | < 1e-05
22 | C8U G38C C61A | < 1e-05
23 | A12C G40U U54A | 0.000324 ± 6.9e-05
24 | C10A A12U G37U U45A | < 1e-05

Row | Variant | self-cleavage kobs at 2500 uM GlcN6P [s⁻¹]
25 | C10U G13A A52U U69G | 4.08e-05 ± 1.4e-05
26 | C8U A48U G60C | < 1e-05
27 | C11G A15G G59U | 9.06e-05 ± 3.1e-05
28 | C10A C34A U65C G66C C71G | < 1e-05
29 | C8A C16U U56A | < 1e-05
30 | C10U U31G A42C | < 1e-05
31 | C8U A15U G44C | < 1e-05
32 | C10U A36U G41U A42G U54G G59C | < 1e-05
33 | A12G G32C | 2.23e-05 ± 9.3e-06
34 | G7C G29U G32C A33G | < 1e-05
35 | C8A G32C G40U U55A | < 1e-05
36 | G9C A33C G38C A39C U65G | < 1e-05
37 | G7C A12G A39U A42C U65C C71A | < 1e-05
38 | C11U G29A C71G | 8.63e-05 ± 3e-05
39 | G7U C10U A36U G44U U54A | < 1e-05
40 | C11U G35C U54A G60U C71A | < 1e-05
41 | A12C U55A U69C | 0.000484 ± 0.00011
42 | C10A G40A U55A | < 1e-05
43 | G9U G40A U45G C50A | < 1e-05
44 | G9C G38C C67U | < 1e-05
45 | C11G A42C G43A C70U | < 1e-05
46 | G7A G41C C67U | < 1e-05
47 | C8U G13A G51A | < 1e-05
48 | C10G G38U | < 1e-05

Row | Variant | self-cleavage kobs at 2500 uM GlcN6P [s⁻¹]
49 | A12C G66U C70A | 0.000107 ± 2.6e-05
50 | G9U G38C U54G G62C | < 1e-05
51 | G9U G35A G59A C71U | < 1e-05
52 | G7C C11U U54A | < 1e-05
53 | C8U A15U G32U U46C | < 1e-05
54 | G9U U45G G62C G66C | < 1e-05
55 | C11G A12G G29A U31G G43U U49A G51U U54C C61U | < 1e-05
56 | C8U A36G C50A G51A C68U C70A | 0.000112 ± 4.4e-05
57 | A12G U30G U46G | < 1e-05
58 | A12G C16G G44U | < 1e-05
59 | C8A A53U C71U | < 1e-05
60 | C8U C16U G60C C71G | < 1e-05
61 | G9A G43C U45G U65C | < 1e-05
62 | G7C A14G G43A U46A U47C G60U | < 1e-05
63 | C8G G29U U69G | < 1e-05
64 | G7C A48U A64U C67U | < 1e-05
65 | C10U G43A C50U G51C | < 1e-05
66 | G9U G29A G63A | < 1e-05
67 | G9A G44U C68G C70G | < 1e-05
68 | C11U A39G A42G | 0.00125 ± 0.00043
69 | C8U G32A A33U G35C G37U A39U G51C G60C | < 1e-05
70 | G7U C11G C16G G32A A53U | < 1e-05
71 | C10U G29U A33G A39C U55G C70G | < 1e-05
72 | C8G U30C A36C U69C | < 1e-05

Row | Variant | self-cleavage kobs at 2500 uM GlcN6P [s⁻¹]
73 | C8U A42C U46A U55A | < 1e-05
74 | G7U A12U G44U | < 1e-05
75 | C10G A42U G62C | < 1e-05
76 | C10G A12U C50G | 0.000103 ± 2.4e-05
77 | G9U G41U G60U C70U | < 1e-05
78 | C8A C34A U69C | < 1e-05
79 | C10A G41A G43C | < 1e-05
80 | G7U U57C C68G | < 1e-05
81 | A12G A14U A64G | 0.000293 ± 7.2e-05
82 | C10U G60C G63U | < 1e-05
83 | G7U A39G U56G C70A | < 1e-05
84 | C8U A33C C58G | < 1e-05
85 | G7C U30A G44A | < 1e-05
86 | C11U G35U C67A C70A | 5.48e-05 ± 2.6e-05
87 | A12G U45A C70G | 0.000143 ± 3.9e-05
88 | A12C C16U U57A | 4.57e-05 ± 1.5e-05
89 | G7C C8G G40C | < 1e-05
90 | C11G A15G A39C G40A | < 1e-05
91 | G7U U56G C58U | < 1e-05
92 | C11G C67A | < 1e-05
93 | C11U A42G C71U | 0.0013 ± 0.0004
94 | G7C G51U G66A C67U C68U | < 1e-05
95 | C8G A42C U45C C71G | < 1e-05
96 | C10U C16U G32U | 6.59e-05 ± 1.7e-05

Row | Variant | self-cleavage kobs at 2500 uM GlcN6P [s⁻¹]
97 | G7U G9C U57A G60C | < 1e-05
98 | G7U C8U A52G | < 1e-05
99 | C10G C11A U30C A36C G37U C70A C71U | 8.35e-05 ± 3.8e-05
100 | G7C A53U U54G | < 1e-05
101 | C11U C50A G51U C61A | 9.9e-05 ± 3.3e-05
102 | C11G G37A U49G G60U | < 1e-05
103 | G7A U45A U49G | < 1e-05
104 | G7U U57G G60U | < 1e-05
105 | G9A G13C C34A G40C C50U C71G | < 1e-05
106 | C10G C11U G32A U45C | < 1e-05
107 | G7U C16A U30C A52U G60U C71G | < 1e-05
108 | C10U A12U A53U | 4.13e-05 ± 1.7e-05
109 | C8A U30C G62A | < 1e-05
110 | C11U A15C G41U G60U | < 1e-05
111 | G9C G60A C67U | < 1e-05
112 | A12G U30G U45G U46A C68U | < 1e-05
113 | A12C C58U G60U | < 1e-05
114 | C8U C10A A15C | < 1e-05
115 | C11U G29A C70A | 0.000404 ± 0.00014
116 | C10U U30A U46G | < 1e-05
117 | C8A A42C A64G | < 1e-05
118 | C10G C16G G35A A53U A64C | < 1e-05
119 | C8U G9U U56A C70G | < 1e-05
120 | C8U A15G G43A | < 1e-05

Row | Variant | self-cleavage kobs at 2500 uM GlcN6P [s⁻¹]
121 | C8U C16U G60A C67A | < 1e-05
122 | A12C C16U C50U | 3.9e-05 ± 1.5e-05
123 | A12G U30C C58A | 0.000105 ± 3.1e-05
124 | C8G A33C U56C G63U | < 1e-05
125 | C8A G32A A33U U55A | < 1e-05
126 | C8A G35C A53U G60A | < 1e-05
127 | G9U G35A A36G G63U | < 1e-05
128 | C11A A12U G35U C50G | 0.000171 ± 4.2e-05
129 | G7U C16U G29A G60U | < 1e-05
130 | C8A U55A C71U | < 1e-05
131 | G7C G51U G59A | < 1e-05
132 | C10G G35U G38A G41U | < 1e-05
133 | C10U G32A G37A A42U C50A U69G | < 1e-05
134 | C11U G51U C70U | 6.92e-05 ± 3.4e-05
135 | G9U C16A C34A C50G | 7.29e-05 ± 2.6e-05
136 | C8G A14U A42U | < 1e-05
137 | G7U C10G A12C A42C G62U | < 1e-05
138 | G7U A36U C68U | < 1e-05
139 | G7C G40U C50G G66C | < 1e-05
140 | G9U G32C G41U U47G A52G U65G U69A | < 1e-05
141 | A12C U31G G32A | 0.000161 ± 5.6e-05
142 | A12G A39G C67A | 0.000177 ± 3.7e-05
143 | G7U G62C G63C U69C | < 1e-05
144 | C8U A12C U30A | < 1e-05

Row | Variant | self-cleavage kobs at 2500 uM GlcN6P [s⁻¹]
145 | C8A C11U C34G G38A | < 1e-05
146 | G9U C10U C34U A53U G63U | < 1e-05
147 | C10A C11U A36C | < 1e-05
148 | C11U G29A U30G U55A G63C A64G | < 1e-05
149 | C8G G29U U31A | < 1e-05
150 | G7C G9U G60A | < 1e-05
151 | A12G G38C U45A C67A | < 1e-05
152 | G7U G32C C68A | < 1e-05
153 | C8G C11A A33C | < 1e-05
154 | C11G G41A G62U C68U | < 1e-05
155 | C11U A12G C16U G40A C68U | < 1e-05
156 | A12C G38A U49C A53C | < 1e-05
157 | G9A C50G C67G | 9.36e-05 ± 2.6e-05
158 | G9U A36U C50G U54G U57A C67U | 0.000182 ± 3.6e-05
159 | C11U A52G C71A | 5.37e-05 ± 2.4e-05
160 | C11A U49G | < 1e-05
161 | C8A G32U A42U A48G G51C | < 1e-05
162 | C10U G43C C61U C70U | < 1e-05

Variants of: B1
Assay: self-cleavage kobs at 10000 uM GlcN6P; higher = faster cleavage; RNA array
Conditions: with glucosamine-6-phosphate
Method in brief: as §1

Row | Variant | self-cleavage kobs at 10000 uM GlcN6P [s⁻¹]
163 | G9U U55C U56G C67U | < 1e-05
164 | C8U A48U G60C | < 1e-05
165 | A12G G32C | 3.88e-05 ± 7.6e-06
166 | G9A G43C U45G U65C | < 1e-05
167 | C8G U30C A36C U69C | < 1e-05
168 | C8A C34A U69C | < 1e-05
169 | A12C C16U U57A | 0.000157 ± 3.4e-05
170 | G7U U56G C58U | < 1e-05
171 | C8G A42C U45C C71G | < 1e-05
172 | C11U G29A C70A | 5.6e-05 ± 1.8e-05
173 | C8G C11A A33C | < 1e-05
